Results published in paper PMC12717012, “Hierarchical interactions between nucleolar and heterochromatin condensates are mediated by a dual-affinity protein” (Nature Cell Biology, 2025).

Target: T1, His-tagged recombinant Pit, wild type (Pit^WT) (Drosophila melanogaster, UniProt Q9VD51 1-680)
T1 construct: also called His-tagged Pit; pBH4-Pit; source: E. coli BL21, purified (Ni-NTA, size-exclusion chromatography on Superdex 200); not shown: 6×His, N-terminal, kept
Test: pull-down; His-tagged Pit (5 µM) as bait with purified HP1a as prey (5 µM; titrated from 50 to 5 µM); 20 mM sodium phosphate, 50 mM NaCl, 10 mM imidazole, 4 °C; captured on Ni-NTA magnetic beads; western blot; background control beads + HP1a only
Conditions: both partners purified

T1 sequence (Q9VD51 whole entry): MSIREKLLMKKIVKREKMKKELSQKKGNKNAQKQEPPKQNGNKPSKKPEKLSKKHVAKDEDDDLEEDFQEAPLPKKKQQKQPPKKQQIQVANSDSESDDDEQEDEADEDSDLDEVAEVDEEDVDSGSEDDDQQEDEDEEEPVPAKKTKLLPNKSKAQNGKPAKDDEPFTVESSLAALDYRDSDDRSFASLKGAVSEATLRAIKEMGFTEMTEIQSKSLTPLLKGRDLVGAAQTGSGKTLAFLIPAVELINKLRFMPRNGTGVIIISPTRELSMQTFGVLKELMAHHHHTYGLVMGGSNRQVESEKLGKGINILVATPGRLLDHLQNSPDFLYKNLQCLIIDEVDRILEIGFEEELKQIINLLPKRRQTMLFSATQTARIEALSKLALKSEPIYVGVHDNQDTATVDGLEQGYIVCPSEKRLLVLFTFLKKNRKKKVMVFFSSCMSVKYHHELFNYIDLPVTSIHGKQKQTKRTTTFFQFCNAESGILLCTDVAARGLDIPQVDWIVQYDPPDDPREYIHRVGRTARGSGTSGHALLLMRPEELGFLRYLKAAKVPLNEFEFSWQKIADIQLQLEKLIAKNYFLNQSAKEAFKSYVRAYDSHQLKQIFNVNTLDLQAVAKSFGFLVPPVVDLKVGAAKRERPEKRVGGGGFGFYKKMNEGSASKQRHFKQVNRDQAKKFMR

- binding result: binds
B1: purified HP1a, wild type (HP1a^WT) (natural protein, Drosophila melanogaster, UniProt P05205 1-206, looked up)
chain: MGKKIDNPESSAKVSDAEEEEEEYAVEKIIDRRVRKGKVEYYLKWKGYPETENTWEPENNLDCQDLIQQYEASRKDEEKSAASKKDRPSSSAKAKETQGRASSSTSTASKRKSEEPTAPSGNKSKRTTDAEQDTIPVSGSTGFDRGLEAEKILGASDNNGRLTFLIQFKGVDQAEMVPSSVANEKIPRMVIHFYEERLSWYSDNED
notes: HP1a, Drosophila melanogaster; It speaks of HP1a dimers, but no dimerisation experiment is done here
